Assay results: US20110130541A1

What was measured:
[1] = tested on: BYK001
[2] = tested on: CapO

BY-kinase A1B2 from Staphylococcus aureus
Radioactivity incorporated in A1B2 (cpm); 50 pmole BYK001, 50 pmole A1B2, incubation 0.5 min [1]: 29200 cpm
Radioactivity incorporated in A1B2 (cpm); 50 pmole BYK001, 50 pmole A1B2, incubation 1 min [1]: 71700 cpm
Radioactivity incorporated in A1B2 (cpm); 50 pmole BYK001, 50 pmole A1B2, incubation 2 min [1]: 133000 cpm
Radioactivity incorporated in A1B2 (cpm); 50 pmole BYK001, 50 pmole A1B2, incubation 5 min [1]: 326000 cpm
Radioactivity incorporated in A1B2 (cpm); 500 pmole BYK001, 50 pmole A1B2, incubation 0.5 min [1]: 30700 cpm
Radioactivity incorporated in A1B2 (cpm); 500 pmole BYK001, 50 pmole A1B2, incubation 1 min [1]: 72500 cpm
Radioactivity incorporated in A1B2 (cpm); 500 pmole BYK001, 50 pmole A1B2, incubation 2 min [1]: 134000 cpm
Radioactivity incorporated in A1B2 (cpm); 500 pmole BYK001, 50 pmole A1B2, incubation 5 min [1]: 325000 cpm
Radioactivity incorporated in A1B2 (cpm); 5000 pmole BYK001, 50 pmole A1B2, incubation 0.5 min [1]: 29900 cpm
Radioactivity incorporated in A1B2 (cpm); 5000 pmole BYK001, 50 pmole A1B2, incubation 1 min [1]: 72500 cpm
Radioactivity incorporated in A1B2 (cpm); 5000 pmole BYK001, 50 pmole A1B2, incubation 2 min [1]: 141000 cpm
Radioactivity incorporated in A1B2 (cpm); 5000 pmole BYK001, 50 pmole A1B2, incubation 5 min [1]: 324000 cpm
Radioactivity incorporated in CapO (cpm); 50 pmole BYK001, 50 pmol A1B2, 50 pmole CapO, incubation 0.5 min [1]: 3560 cpm
Radioactivity incorporated in CapO (cpm); 50 pmole BYK001, 50 pmol A1B2, 50 pmole CapO, incubation 1 min [1]: 6390 cpm
Radioactivity incorporated in CapO (cpm); 50 pmole BYK001, 50 pmol A1B2, 50 pmole CapO, incubation 2 min [1]: 15500 cpm
Radioactivity incorporated in CapO (cpm); 50 pmole BYK001, 50 pmol A1B2, 50 pmole CapO, incubation 5 min [1]: 31900 cpm
Radioactivity incorporated in CapO (cpm); 500 pmole BYK001, 50 pmol A1B2, 50 pmole CapO, incubation 0.5 min [1]: 3500 cpm
Radioactivity incorporated in CapO (cpm); 500 pmole BYK001, 50 pmol A1B2, 50 pmole CapO, incubation 1 min [1]: 6300 cpm
Radioactivity incorporated in CapO (cpm); 500 pmole BYK001, 50 pmol A1B2, 50 pmole CapO, incubation 2 min [1]: 15500 cpm
Radioactivity incorporated in CapO (cpm); 500 pmole BYK001, 50 pmol A1B2, 50 pmole CapO, incubation 5 min [1]: 31300 cpm
Radioactivity incorporated in CapO (cpm); 5000 pmole BYK001, 50 pmol A1B2, 50 pmole CapO, incubation 0.5 min [1]: 3510 cpm
Radioactivity incorporated in CapO (cpm); 5000 pmole BYK001, 50 pmol A1B2, 50 pmole CapO, incubation 1 min [1]: 6320 cpm
Radioactivity incorporated in CapO (cpm); 5000 pmole BYK001, 50 pmol A1B2, 50 pmole CapO, incubation 2 min [1]: 15500 cpm
Radioactivity incorporated in CapO (cpm); 5000 pmole BYK001, 50 pmol A1B2, 50 pmole CapO, incubation 5 min [1]: 31000 cpm
Radioactivity incorporated in CapO (cpm); 50 pmol A1B2, 50 pmole CapO, no BYK001, incubation 0.5 min [2]: 3950 cpm
Radioactivity incorporated in CapO (cpm); 50 pmol A1B2, 50 pmole CapO, no BYK001, incubation 1 min [2]: 7040 cpm
Radioactivity incorporated in CapO (cpm); 50 pmol A1B2, 50 pmole CapO, no BYK001, incubation 2 min [2]: 17400 cpm
Radioactivity incorporated in CapO (cpm); 50 pmol A1B2, 50 pmole CapO, no BYK001, incubation 5 min [2]: 34700 cpm
